doi:10.1101/2024.08.24.609485

Biological target: GST-N-WASP-PRD (human) (UniProt O00401)
Assay: mass photometry

- stoichiometry N: 2
Substance: GST-N-WASP-PRD (from UniProt O00401 261-332) (domain or fragment)
